Read-outs that look alike come from different tables or passages of the source.
Key:
U373MG tumor = assay: Biodistribution in tumor bearing nude mice; assay type: in vivo
Method: (§1) Male albino mice in a weight range of18-24 g were used for normal mice treatments and malenude mice (6 to 8 weeks old) were used for in-vivo tumor treatments. The mice were housed at controlled room temperature (25 °C) in a 12 h light/12 h dark schedule. They were kept in standard cages with free access to food and water except during the experiments. The nude mice were grown and kept in isolated sterile condition. All animal experiments were carried out in compliance with our institutional ethical guidelines.
(§2) U373MG cells were grown and harvested by trypsinization. Cells were washed twice with fresh RPMI medium containing 20% FBS and centrifuged for 5 min at 200 g. Pellets were resuspended in RPMI medium containing 20% FBS. A 100 µL suspension of 4 × 10^6 cells was subcutaneously injected on the right flank of each nude mouse. After four weeks, the size of inducted tumors was suitable for biodistribution study and mice were injected via the tail vein with radiolabeled peptide in two groups in the presence and absence of block. They sacrificed at 1 h and 4 h time points to assay the biodistribution. They were dissected and % ID/g of tissues was measured as described above. Finally, tumor-to-organ ratios were calculated.

[1] = Biodistribution in tumor bearing nude mice; assay type: in vivo; conditions: male, nude, mouse, iv, total radioactivity, mean ± SEM; for tissue uptake at 1 h: 1 h p.i.; for tissue uptake at 4 h: 4 h p.i.
Method: as §1, §2

[2] = U373MG tumor, U373MG tumor, blocked tumor bearing nude mice (excess SP), P< 0.01 vs nonblocked, read-out: %ID/g Tumor
[3] = blood, Blood, blocked tumor bearing nude mice (excess SP), read-out: %ID/g Blood
[4] = bone, Bone, blocked tumor bearing nude mice (excess SP), read-out: %ID/g Bone
[5] = bone, Bone, tumor bearing nude mice, i.v., n=3, read-out: %ID/g Bone
[6] = heart, Heart, blocked tumor bearing nude mice (excess SP), read-out: %ID/g Heart
[7] = heart, Heart, tumor bearing nude mice, i.v., n=3, read-out: %ID/g Heart
[8] = kidneys, Kidneys, blocked tumor bearing nude mice (excess SP), read-out: %ID/g Kidneys
[9] = kidneys, Kidneys, tumor bearing nude mice, i.v., n=3, read-out: %ID/g Kidneys
[10] = muscle, Muscle, blocked tumor bearing nude mice (excess SP), read-out: %ID/g Muscle
[11] = muscle, Muscle, tumor bearing nude mice, i.v., n=3, read-out: %ID/g Muscle
[12] = salivary gland, Salivary G., blocked tumor bearing nude mice (excess SP), read-out: %ID/g Salivary G.
[13] = salivary gland, Salivary G., tumor bearing nude mice, i.v., n=3, read-out: %ID/g Salivary G.

For `CC(C)C[C@H](NC(=O)CNC(=O)[C@H](Cc1ccc(O)cc1)NC(=O)[C@H](Cc1ccccc1)NC(=O)[C@H](CCC(N)=O)NC(=O)[C@H](CCC(N)=O)NC(=O)[C@@H]1CCCN1C(=O)[C@H](CCCCN)NC(=O)[C@@H]1CCCN1C(=O)[C@H](CCCNC(=N)N)NC(=O)c1ccc(NN)nc1)C(=O)N[C@@H](CC[S+](C)[O-])C(N)=O` (some centres unmarked) [^99mTc-HYNIC-Tyr^8-Met(O)^11-SP, metal not drawn], the “D% Blood” value (U373MG tumor; Blood, decreased percent of %ID/g between 1 h and 4 h, nude mice) was 69%, the “%ID/g Blood” value (U373MG tumor; Blood, tumor bearing nude mice, 1 h p.i., i.v., mean ± SEM, n=3) was 1.32±0.16 %ID/g and the “D% Bone” value (U373MG tumor; Bone, decreased percent of %ID/g between 1 h and 4 h, nude mice) was 48%. The “D% Heart” value (U373MG tumor; Heart, decreased percent of %ID/g between 1 h and 4 h, nude mice) was 68%, the “D% Kidneys” value (U373MG tumor; Kidneys, decreased percent of %ID/g between 1 h and 4 h, nude mice) was 34% and the “%ID/g L. intestine” value (U373MG tumor; L. intestine, blocked tumor bearing nude mice (excess SP), 1 h p.i., mean ± SEM, P< 0.01 vs nonblocked) was 0.73±0.14 %ID/g. For the same compound, the “%ID/g L. intestine” value (U373MG tumor; L. intestine, blocked tumor bearing nude mice (excess SP), 4 h p.i., mean ± SEM, P< 0.01 vs nonblocked) was 0.70±0.16 %ID/g, the “D% L. intestine” value (U373MG tumor; L. intestine, decreased percent of %ID/g between 1 h and 4 h, nude mice) was 3% and the “%ID/g L. intestine” value (U373MG tumor; L. intestine, tumor bearing nude mice, 1 h p.i., i.v., mean ± SEM, n=3) was 1.89±0.15 %ID/g. For the same compound, the “%ID/g L. intestine” value (U373MG tumor; L. intestine, tumor bearing nude mice, 4 h p.i., i.v., mean ± SEM, n=3) was 1.83±0.06 %ID/g, the “%ID/g Liver” value (U373MG tumor; Liver, blocked tumor bearing nude mice (excess SP), 1 h p.i., mean ± SEM) was 0.96±0.10 %ID/g and the “%ID/g Liver” value (U373MG tumor; Liver, blocked tumor bearing nude mice (excess SP), 4 h p.i., mean ± SEM) was 0.50±0.08 %ID/g. The “D% Liver” value (U373MG tumor; Liver, decreased percent of %ID/g between 1 h and 4 h, nude mice) was 37%, the “%ID/g Liver” value (U373MG tumor; Liver, tumor bearing nude mice, 1 h p.i., i.v., mean ± SEM, n=3) was 0.86±0.09 %ID/g and the “%ID/g Liver” value (U373MG tumor; Liver, tumor bearing nude mice, 4 h p.i., i.v., mean ± SEM, n=3) was 0.54±0.07 %ID/g. For the same compound, the “%ID/g Lung” value (U373MG tumor; Lung, blocked tumor bearing nude mice (excess SP), 1 h p.i., mean ± SEM) was 1.53±0.25 %ID/g, the “%ID/g Lung” value (U373MG tumor; Lung, blocked tumor bearing nude mice (excess SP), 4 h p.i., mean ± SEM) was 0.67±0.09 %ID/g and the “D% Lung” value (U373MG tumor; Lung, decreased percent of %ID/g between 1 h and 4 h, nude mice) was 48%. The “%ID/g Lung” value (U373MG tumor; Lung, tumor bearing nude mice, 1 h p.i., i.v., mean ± SEM, n=3) was 1.47±0.15 %ID/g, the “%ID/g Lung” value (U373MG tumor; Lung, tumor bearing nude mice, 4 h p.i., i.v., mean ± SEM, n=3) was 0.76±0.12 %ID/g and the “D% Muscle” value (U373MG tumor; Muscle, decreased percent of %ID/g between 1 h and 4 h, nude mice) was 84%. The “%ID/g S. intestine” value (U373MG tumor; S. intestine, blocked tumor bearing nude mice (excess SP), 1 h p.i., mean ± SEM, P< 0.01 vs nonblocked) was 0.83±0.12 %ID/g, the “%ID/g S. intestine” value (U373MG tumor; S. intestine, blocked tumor bearing nude mice (excess SP), 4 h p.i., mean ± SEM, P< 0.05 vs nonblocked) was 0.36±0.09 %ID/g and the “D% S. intestine” value (U373MG tumor; S. intestine, decreased percent of %ID/g between 1 h and 4 h, nude mice) was 70%. For the same compound, the “%ID/g S. intestine” value (U373MG tumor; S. intestine, tumor bearing nude mice, 1 h p.i., i.v., mean ± SEM, n=3) was 2.57±0.34 %ID/g, the “%ID/g S. intestine” value (U373MG tumor; S. intestine, tumor bearing nude mice, 4 h p.i., i.v., mean ± SEM, n=3) was 0.78±0.07 %ID/g and the “D% Salivary G.” value (U373MG tumor; Salivary G., decreased percent of %ID/g between 1 h and 4 h, nude mice) was 66%. For the same compound, the “D% Stomach” value (U373MG tumor; Stomach, decreased percent of %ID/g between 1 h and 4 h, nude mice) was 61%, the “D% Tumor” value (U373MG tumor; U373MG tumor, decreased percent of %ID/g between 1 h and 4 h, nude mice) was 62% and the “%ID/g Tumor” value (U373MG tumor; U373MG tumor, tumor bearing nude mice, 1 h p.i., i.v., mean ± SEM, n=3) was 3.36±0.26 %ID/g. The tissue uptake at 1 h [1, 2] was 1.36 ± 0.19 %ID/g, the tissue uptake at 4 h [1, 2] was 0.54 ± 0.08 %ID/g and the tissue uptake at 4 h ([1]; U373MG tumor, U373MG tumor, tumor bearing nude mice, i.v., n=3, read-out: %ID/g Tumor) was 1.26 ± 0.11 %ID/g. For the same compound, the tissue uptake at 1 h [1, 3] was 1.7 ± 0.14 %ID/g, the tissue uptake at 4 h [1, 3] was 0.52 ± 0.15 %ID/g and the tissue uptake at 4 h ([1]; blood, Blood, tumor bearing nude mice, i.v., n=3, read-out: %ID/g Blood) was 0.41 ± 0.12 %ID/g. For the same compound, the tissue uptake at 1 h [1, 4] was 0.66 ± 0.07 %ID/g, the tissue uptake at 4 h [1, 4] was 0.31 ± 0.03 %ID/g and the tissue uptake at 1 h [1, 5] was 0.52 ± 0.06 %ID/g. For the same compound, the tissue uptake at 4 h [1, 5] was 0.27 ± 0.03 %ID/g, the tissue uptake at 1 h [1, 6] was 0.98 ± 0.09 %ID/g and the tissue uptake at 4 h [1, 6] was 0.23 ± 0.02 %ID/g. The tissue uptake at 1 h [1, 7] was 0.78 ± 0.11 %ID/g, the tissue uptake at 4 h [1, 7] was 0.25 ± 0.02 %ID/g and the tissue uptake at 1 h [1, 8] was 20.2 ± 0.61 %ID/g. For the same compound, the tissue uptake at 4 h [1, 8] was 13.1 ± 0.76 %ID/g, the tissue uptake at 1 h [1, 9] was 19.3 ± 0.65 %ID/g and the tissue uptake at 4 h [1, 9] was 12.8 ± 0.52 %ID/g. For the same compound, the tissue uptake at 1 h [1, 10] was 0.73 ± 0.09 %ID/g, the tissue uptake at 4 h [1, 10] was 0.09 ± 0.01 %ID/g and the tissue uptake at 1 h [1, 11] was 0.51 ± 0.06 %ID/g. For the same compound, the tissue uptake at 4 h [1, 11] was 0.08 ± 0.01 %ID/g, the tissue uptake at 1 h [1, 12] was 0.95 ± 0.06 %ID/g and the tissue uptake at 4 h [1, 12] was 0.41 ± 0.03 %ID/g. It also gave a tissue uptake at 1 h [1, 13] of 1 ± 0.09 %ID/g and a tissue uptake at 4 h [1, 13] of 0.33 ± 0.04 %ID/g.
